Values joined by “and” are separate entries in the source; they are usually repeats but may differ in a detail not shown here. Identical values can stand only once. No end group written: not given here.
T1: peptide 9 (also: biotinylated, site not given here)
T1 construct: also called 9 on the axis Peptide number; first peptide library
T1 peptide: GYEVHHQKL

T2: peptide 17 (also: biotinylated, site not given here)
T2 construct: also called 17 on the axis Peptide number; first peptide library
T2 peptide: LVFFAEDVG

T3: peptide 18 (also: biotinylated, site not given here)
T3 construct: also called 18 on the axis Peptide number; first peptide library
T3 peptide: VFFAEDVGS

T4: peptide 20 (also: biotinylated, site not given here)
T4 construct: also called 20 on the axis Peptide number; first peptide library
T4 peptide: FAEDVGSNK

T5: peptide 25 (also: biotinylated, site not given here)
T5 construct: also called 25 on the axis Peptide number; first peptide library
T5 peptide: GSNKGAIIG

T6: peptide 29 (also: biotinylated, site not given here)
T6 construct: also called 29 on the axis Peptide number; first peptide library
T6 peptide: GAIIGLMVG

T7: peptide 30 (also: biotinylated, site not given here)
T7 construct: also called 30 on the axis Peptide number; first peptide library
T7 peptide: AIIGLMVGG

T8: peptide 31 (also: biotinylated, site not given here)
T8 construct: also called 31 on the axis Peptide number; first peptide library
T8 peptide: IIGLMVGGV

T9: peptide 32 (also: biotinylated, site not given here)
T9 construct: also called 32 on the axis Peptide number; first peptide library
T9 peptide: IGLMVGGVV

T10: peptide 1 (also: biotinylated, site not given here)
T10 construct: also called 1 on the axis Peptide number; first peptide library
T10 peptide: DAEFRHDSG

B1: humanized anti-human amyloid beta monoclonal antibody hC2 (antibody, human IgG4 S228P, kappa, V domains shown)
VH: EVQLVESGGGLVQPGGSLRLSCAASGFTFSSYGMSWVRQAPGKGLELVASINSNGGSTYYPDSVKGRFTISRDNAKNSLYLQMNSLRAEDTAVYYCASGDYWGQGTTVTVSS
VL: DIVMTQSPLSLPVTPGEPASISCRSSQSLVYSNGDTYLHWYLQKPGQSPQLLIYKVSNRFSGVPDRFSGSGSGTDFTLKISRVEAEDVGVYYCSQSTHVPWTFGQGTKVEIKR
notes: also called humanized antibody C2; humanized C2
B2: mouse monoclonal antibody ACI-01-Ab7C2 (antibody, V domains shown)
VH: EVQLVESGGGLVQPGGSLKLSCAASGFTFSSYGMSWVRQTPDKRLELVASINSNGGSTYYPDSVKGRFTISRDNAKNTLYLQMSSLKSEDTAMYYCASGDYWGQGSTLTVSS
VL: DVVMTQTPLSLPVSLGDQASISCRSSQSLVYSNGDTYLHWYLQKPGQSPKLLIYKVSNRFSGVPDRFSGSGSGTDFTLKISRVEAEDLGVYFCSQSTHVPWTFGGGTKLEIK
notes: also called mC2; mACI-01-Ab7 C2

How the values were obtained:
peptide 9 = biological target: T1, peptide 9; test: ELISA, biotinylated peptide on streptavidin plate, O.D. 405 nm [upper chart, Figure 1]
Excerpt: (§1) One library comprised a total of 33 biotinylated peptides covering the complete amino acid (aa) sequence of Aβ1-42 (produced by Mimotopes and purchased from ANAWA Trading SA), the second library contains biotinylated peptides using peptide 12 (aa12-20 of Aβ) from the first peptide library and substituting each aa in the sequence by an alanine (see table 8 below), and the third library contains biotinylated peptides 13, 14, or 15 (aa 13-21, 14-22 or 15-23 of Aβ) and substituting in each case the last amino acids to an alanine or to a glycine for aa 21 which is already an alanine (see table 9 below). A biotinylated complete Aβ1-42 peptide was used as positive control (Bachem). Epitope mapping was done according to the manufacturer's (Mimotopes) instructions. Briefly, Streptavidin coated plates (NUNC) were blocked with 0.1% BSA in PBS overnight at 4° C. After washing with PBS-0.05% Tween 20, plates were coated for 1 hour at RT with the different peptides from the library, diluted in 0.1% BSA, 0.1% Sodium Azide in PBS to a final concentration of 10 μM. […] Plates were washed again and incubated with alkaline phosphatase conjugated goat anti human IgG for 1 h at RT.

peptide 17 = biological target: T2, peptide 17; test: as above
Excerpt: as §1

peptide 18 = biological target: T3, peptide 18; test: as above
Excerpt: as §1

peptide 20 = biological target: T4, peptide 20; test: as above
Excerpt: as §1

peptide 25 = biological target: T5, peptide 25; test: as above
Excerpt: as §1

peptide 29 = biological target: T6, peptide 29; test: as above
Excerpt: as §1

peptide 30 = biological target: T7, peptide 30; test: as above
Excerpt: as §1

peptide 31 = biological target: T8, peptide 31; test: as above
Excerpt: as §1

peptide 32 = biological target: T9, peptide 32; test: as above
Excerpt: as §1

peptide 1 = biological target: T10, peptide 1; test: as above
Excerpt: as §1

[1] = biological target: T11, biotinylated complete Aβ1-42 peptide (Bachem) (UniProt P05067 672-713, biotinylated (position not given)); test: SPR (Biacore X), biotinylated monomeric Aβ1-42 on SA chip, 1:1 fit
T11 construct: domain: amyloid beta 1-42; also called Amyloid beta 1-42; whole Aβ1-42 protein
T11 sequence (P05067 672-713 limits assumed): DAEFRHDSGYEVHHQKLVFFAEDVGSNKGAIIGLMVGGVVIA
Method: The interactions between AC immune's lead antibody mACI-01-Ab7 C2 (mC2) with amyloid peptide Aβ₁₋₄₂ was studies using surface plasmon resonance. The binding of the mouse antibody mACI-01-Ab7 C2 to either monomers or fibers of Aβ₁₋₄₂ were determined.
All SPR experiments were carried out on a Biacore X instrument (Biacore AB). Reagents for immobilization (EDC, NHS and ethanolamine), sensor chips CM5 and SA as well as running and sample buffer HBS-EP were purchased from Biacore AB. Sodium acetate (10 mM, pH 5.0) was used as coupling buffer to increase coupling yield. Fibrillar Aβ₁₋₄₂ (BAchem) was prepared by adding PBS buffer to Aβ₁₋₄₂ to a final concentration of 3 mg/ml and leaving the vials at 37° C. for 7 days. Fibrillar Aβ₁₋₄₂ was coupled to a CM5 sensor chip containing a surface-bound carboxymethyl dextran matrix. Biotinylated monomeric Aβ₁₋₄₂ (Bachem) was coupled to a Sensor chip SA consisting of carboxymethyl dextran matrix with covalently attached Streptavidin. Typically four or five concentrations of mAb were assayed by serial dilutions using running buffer. Injections were performed starting from the lowest concentration and were passed over both fc 1 and 2 at a flow rate of 30 μL'min for 3 min. Flow cell 2 was underivatised and responses were subtracted from fc 1 to correct for instrument noise and bulk refractive changes. After injection was finished, the surfaces were washed immediately with running buffer for 5 min. To remove remaining bound antibody from the Aβ₁₋₄₂ fibrils, surface regeneration was performed by injecting pulses of 10 mM NaOH. Kinetic analysis was performed using algorithms for numerical integration and global analysis using BIAevaluation 3.0. The curves obtained for injections of analyte at different concentrations were overlaid and the baselines adjusted to zero. For curve fitting, all data were fit simultaneously to a 1:1 homogeneous complex.

amyloid beta 1-42 fibers = biological target: T12, amyloid beta 1-42 fibers (UniProt P05067 672-713); test: SPR (BIACORE), Aβ1-42 fibers immobilized on CM5 chip, antibody 0.05-1.0 µM
T12 construct: domain: amyloid beta 1-42; Many copies per fiber; also called Aβ1-42 fibers; fibrillar Aβ1-42
T12 sequence (P05067 672-713 limits assumed): as above
Method: BIACORE® technology utilizes changes in the refractive index at the surface layer upon binding of the antibody to the antigen immobilized on the layer. Binding is detected by surface plasmon resonance (SPR) of laser light refracting from the surface. Analysis of the signal kinetics on rate and off rate allows the discrimination between non-specific and specific interaction. The concentration of antibody used was in the range of 0.05 μM to 1.0 μM.

Binder	binding result (peptide 9)	binding result (peptide 17)	binding result (peptide 18)	binding result (peptide 20)	binding result (peptide 25)	binding result (peptide 29)	binding result (peptide 30)	binding result (peptide 31)	binding result (peptide 32)	binding result (peptide 1)	Kd [1]	koff [1]	kon [1]	Kd (amyloid beta 1-42 fibers) [µM]	koff (amyloid beta 1-42 fibers) [s⁻¹]	kon (amyloid beta 1-42 fibers) [M⁻¹ s⁻¹]
B1	no binding (tested: 200 ng/ml (single concentration))	no binding (tested: 200 ng/ml (single concentration))	no binding (tested: 200 ng/ml (single concentration))	no binding (tested: 200 ng/ml (single concentration))	no binding (tested: 200 ng/ml (single concentration))	no binding (tested: 200 ng/ml (single concentration))	no binding (tested: 200 ng/ml (single concentration))	no binding (tested: 200 ng/ml (single concentration))	no binding (tested: 200 ng/ml (single concentration))	no binding (tested: 200 ng/ml (single concentration))	–	–	–	–	–	–
B2	–	–	–	–	–	–	–	–	–	–	0.15 µM and 0.35 µM	0.0027 s⁻¹ and 0.0053 s⁻¹	18000 M⁻¹ s⁻¹ and 15000 M⁻¹ s⁻¹	0.041	0.00099	24000

Source: patent US20100150906A1 (AC IMMUNE S A, published 2010)
